Measurements from publication PMC9482650, “Quantitative fragmentomics allow affinity mapping of interactomes” (Nature Communications, 2022).
Where a chain is given by its changes, count along the chain named.

T1: GRIP1_4, Q9Y3R0
T1 sequence (Q9Y3R0 467-571, limits assumed, looked up): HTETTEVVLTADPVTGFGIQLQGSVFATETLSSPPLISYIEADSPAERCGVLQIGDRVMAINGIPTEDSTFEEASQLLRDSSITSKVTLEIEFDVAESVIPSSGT

T2: SNTA1, Q13424
T2 sequence (Q13424 82-180, limits assumed, looked up): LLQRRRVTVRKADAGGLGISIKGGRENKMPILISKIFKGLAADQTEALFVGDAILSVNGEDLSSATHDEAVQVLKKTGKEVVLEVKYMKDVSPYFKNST

T3: MPP6, Q9NZW5
T3 sequence (Q9NZW5 125-219, limits assumed, looked up): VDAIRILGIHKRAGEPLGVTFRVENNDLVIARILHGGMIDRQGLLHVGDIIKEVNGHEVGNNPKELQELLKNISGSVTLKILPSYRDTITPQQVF

T4: APBA1_2, Q02410
T4 sequence (Q02410 742-832, limits assumed, looked up): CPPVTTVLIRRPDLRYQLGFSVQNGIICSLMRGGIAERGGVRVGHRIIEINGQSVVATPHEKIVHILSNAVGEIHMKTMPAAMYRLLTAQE

T5: NHERF3_3, Q5T2W1
T5 sequence (Q5T2W1 238-333, limits assumed, looked up): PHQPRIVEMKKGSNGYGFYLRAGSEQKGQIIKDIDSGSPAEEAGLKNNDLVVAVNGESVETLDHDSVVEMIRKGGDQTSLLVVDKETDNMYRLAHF

T6: ARHGAP21, Q5T5U3
T6 sequence (Q5T5U3 45-169, limits assumed, looked up): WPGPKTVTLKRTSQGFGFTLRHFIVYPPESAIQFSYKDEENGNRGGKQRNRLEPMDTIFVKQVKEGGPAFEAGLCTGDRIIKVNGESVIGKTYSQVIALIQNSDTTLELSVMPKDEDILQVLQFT

T7: PCLO, Q9Y6V0
T7 sequence (Q9Y6V0 4491-4600, limits assumed, looked up): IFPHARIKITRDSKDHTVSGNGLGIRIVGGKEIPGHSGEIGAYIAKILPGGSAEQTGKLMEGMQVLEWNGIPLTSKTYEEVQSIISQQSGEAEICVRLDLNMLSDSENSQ

T8: APBA2_2, Q99767
T8 sequence (Q99767 654-744, limits assumed, looked up): T4 sequence (Q02410 742-832, limits assumed, looked up) with R10K, R15K, P59A, H65Q, I66A, A70S, Y84F, A89G

T9: MPP2, Q14168
T9 sequence (Q14168 180-250, limits assumed, looked up): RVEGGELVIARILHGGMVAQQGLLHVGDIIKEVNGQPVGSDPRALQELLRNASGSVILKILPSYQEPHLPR


The binders below were run against T1, GRIP1_4, Q9Y3R0 (assay: holdup assay). Conditions: plain residues with an end cap or a label only (N-terminal biotin on a linker: ado-ado).
Parameters: key: below the threshold = too weak to quantify, mostly under pKd 3.1 to 4

Binder	pKd
ASGLDKRDYV [CLDN9, O95484]	below the threshold
TGLWKSETTV [ADGRA2, Q96PE1]	below the threshold

Each binder was assayed against FRMPD4, Q14CM0 (assay: holdup assay). Conditions: plain residues with an end cap or a label only (N-terminal biotin on a linker: ado-ado).
FRMPD4, Q14CM0, sequence (Q14CM0 67-160): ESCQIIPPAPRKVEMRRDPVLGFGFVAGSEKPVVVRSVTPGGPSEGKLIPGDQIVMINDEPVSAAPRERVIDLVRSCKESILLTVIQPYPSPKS
Parameters: key: below the threshold = too weak to quantify, mostly under pKd 3.1 to 4

Binder	pKd
ASGLDKRDYV [CLDN9, O95484]	below the threshold
TGLWKSETTV [ADGRA2, Q96PE1]	below the threshold

The binders below were run against GRID2IP_1, A4D2P6 (assay: holdup assay). Conditions: plain residues with an end cap or a label only (N-terminal biotin on a linker: ado-ado).
GRID2IP_1, A4D2P6, sequence (A4D2P6 1-87): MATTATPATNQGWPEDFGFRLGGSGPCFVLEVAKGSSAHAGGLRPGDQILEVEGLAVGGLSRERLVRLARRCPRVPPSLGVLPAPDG
Parameters: key: below the threshold = too weak to quantify, mostly under pKd 3.1 to 4

Binder	pKd
ASGLDKRDYV [CLDN9, O95484]	below the threshold
TGLWKSETTV [ADGRA2, Q96PE1]	below the threshold

These binders were tested against DLG1_1, Q12959 (assay: holdup assay). Conditions: plain residues with an end cap or a label only (N-terminal biotin on a linker: ado-ado).
Parameters: key: below the threshold = too weak to quantify, mostly under pKd 3.1 to 4

Binder	pKd
ASGLDKRDYV [CLDN9, O95484]	below the threshold
TGLWKSETTV [ADGRA2, Q96PE1]	4.85

Each binder was assayed against IL16_4, Q14005 (assay: holdup assay). Conditions: plain residues with an end cap or a label only (N-terminal biotin on a linker: ado-ado).
IL16_4, Q14005, sequence (Q14005 1229-1329): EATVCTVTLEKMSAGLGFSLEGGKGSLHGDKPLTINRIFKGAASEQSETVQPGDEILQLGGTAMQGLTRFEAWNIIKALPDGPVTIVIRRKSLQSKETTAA
Parameters: key: below the threshold = too weak to quantify, mostly under pKd 3.1 to 4

Binder	pKd
ASGLDKRDYV [CLDN9, O95484]	below the threshold
TGLWKSETTV [ADGRA2, Q96PE1]	below the threshold

The binders below were run against MAGI2_4, Q86UL8 (assay: holdup assay). Conditions: plain residues with an end cap or a label only (N-terminal biotin on a linker: ado-ado).
MAGI2_4, Q86UL8, sequence (Q86UL8 772-865): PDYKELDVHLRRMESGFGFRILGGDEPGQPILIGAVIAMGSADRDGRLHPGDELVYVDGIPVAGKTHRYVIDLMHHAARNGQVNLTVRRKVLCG
Parameters: key: below the threshold = too weak to quantify, mostly under pKd 3.1 to 4

Binder	pKd
ASGLDKRDYV [CLDN9, O95484]	below the threshold
TGLWKSETTV [ADGRA2, Q96PE1]	4.88

Each binder was assayed against CASK, O14936 (assay: holdup assay). Conditions: plain residues with an end cap or a label only (N-terminal biotin on a linker: ado-ado).
CASK, O14936, sequence (O14936 487-570): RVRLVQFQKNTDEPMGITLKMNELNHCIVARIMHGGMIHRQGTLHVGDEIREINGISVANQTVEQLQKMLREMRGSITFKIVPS
Parameters: key: below the threshold = too weak to quantify, mostly under pKd 3.1 to 4

Binder	pKd
ASGLDKRDYV [CLDN9, O95484]	below the threshold
TGLWKSETTV [ADGRA2, Q96PE1]	below the threshold

What follows are binders tested against DLG2_2, Q15700 (assay: holdup assay). Conditions: plain residues with an end cap or a label only (N-terminal biotin on a linker: ado-ado).
DLG2_2, Q15700, sequence (Q15700 189-283): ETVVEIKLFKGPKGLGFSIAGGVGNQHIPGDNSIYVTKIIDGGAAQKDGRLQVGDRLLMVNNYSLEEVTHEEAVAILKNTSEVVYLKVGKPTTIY
Parameters: key: below the threshold = too weak to quantify, mostly under pKd 3.1 to 4

Binder	pKd
ASGLDKRDYV [CLDN9, O95484]	below the threshold
TGLWKSETTV [ADGRA2, Q96PE1]	5.16

These binders were tested against FRMPD2_1, Q68DX3 (assay: holdup assay). Conditions: plain residues with an end cap or a label only (N-terminal biotin on a linker: ado-ado).
FRMPD2_1, Q68DX3, sequence (Q68DX3 770-861): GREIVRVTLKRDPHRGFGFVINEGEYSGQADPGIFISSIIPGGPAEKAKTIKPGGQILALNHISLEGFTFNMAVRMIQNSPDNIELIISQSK
Parameters: key: below the threshold = too weak to quantify, mostly under pKd 3.1 to 4

Binder	pKd
ASGLDKRDYV [CLDN9, O95484]	below the threshold
TGLWKSETTV [ADGRA2, Q96PE1]	below the threshold

These binders were tested against GRIP2_3, Q9C0E4 (assay: holdup assay). Conditions: plain residues with an end cap or a label only (N-terminal biotin on a linker: ado-ado).
GRIP2_3, Q9C0E4, sequence (Q9C0E4 238-339): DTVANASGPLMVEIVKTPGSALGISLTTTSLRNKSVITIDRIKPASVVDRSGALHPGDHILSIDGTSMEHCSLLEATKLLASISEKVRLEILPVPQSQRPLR
Parameters: key: below the threshold = too weak to quantify, mostly under pKd 3.1 to 4

Binder	pKd
ASGLDKRDYV [CLDN9, O95484]	below the threshold
TGLWKSETTV [ADGRA2, Q96PE1]	below the threshold

What follows are binders tested against PDLIM1, O00151 (assay: holdup assay). Conditions: plain residues with an end cap or a label only (N-terminal biotin on a linker: ado-ado).
PDLIM1, O00151, sequence (O00151 1-87): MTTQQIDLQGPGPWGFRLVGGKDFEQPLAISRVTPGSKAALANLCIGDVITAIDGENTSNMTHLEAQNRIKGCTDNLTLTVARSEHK
Parameters: key: below the threshold = too weak to quantify, mostly under pKd 3.1 to 4

Binder	pKd
ASGLDKRDYV [CLDN9, O95484]	below the threshold
TGLWKSETTV [ADGRA2, Q96PE1]	below the threshold

The binders below were run against T2, SNTA1, Q13424 (assay: holdup assay). Conditions: plain residues with an end cap or a label only (N-terminal biotin on a linker: ado-ado).
Parameters: key: below the threshold = too weak to quantify, mostly under pKd 3.1 to 4

Binder	pKd
ASGLDKRDYV [CLDN9, O95484]	below the threshold
TGLWKSETTV [ADGRA2, Q96PE1]	4.41

Each binder was assayed against LIMK2, P53671 (assay: holdup assay). Conditions: plain residues with an end cap or a label only (N-terminal biotin on a linker: ado-ado).
LIMK2, P53671, sequence (P53671 143-248): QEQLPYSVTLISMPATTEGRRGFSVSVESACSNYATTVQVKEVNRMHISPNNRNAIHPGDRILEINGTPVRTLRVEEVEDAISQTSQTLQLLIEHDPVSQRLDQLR
Parameters: key: below the threshold = too weak to quantify, mostly under pKd 3.1 to 4

Binder	pKd
ASGLDKRDYV [CLDN9, O95484]	below the threshold
TGLWKSETTV [ADGRA2, Q96PE1]	below the threshold

What follows are binders tested against TJP2_1, Q9UDY2 (assay: holdup assay). Conditions: plain residues with an end cap or a label only (N-terminal biotin on a linker: ado-ado).
TJP2_1, Q9UDY2, sequence (Q9UDY2 24-128): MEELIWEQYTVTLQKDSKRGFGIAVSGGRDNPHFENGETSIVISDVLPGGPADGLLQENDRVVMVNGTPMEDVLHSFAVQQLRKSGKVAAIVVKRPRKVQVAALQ
Parameters: key: below the threshold = too weak to quantify, mostly under pKd 3.1 to 4

Binder	pKd
ASGLDKRDYV [CLDN9, O95484]	below the threshold
TGLWKSETTV [ADGRA2, Q96PE1]	below the threshold

What follows are binders tested against DLG4_1, P78352 (assay: holdup assay). Conditions: plain residues with an end cap or a label only (N-terminal biotin on a linker: ado-ado).
DLG4_1, P78352, sequence (P78352 62-152): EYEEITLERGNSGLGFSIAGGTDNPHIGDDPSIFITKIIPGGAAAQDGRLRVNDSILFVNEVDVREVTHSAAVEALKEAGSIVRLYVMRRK
Parameters: key: below the threshold = too weak to quantify, mostly under pKd 3.1 to 4

Binder	pKd
ASGLDKRDYV [CLDN9, O95484]	below the threshold
TGLWKSETTV [ADGRA2, Q96PE1]	4.94

What follows are binders tested against T3, MPP6, Q9NZW5 (assay: holdup assay). Conditions: plain residues with an end cap or a label only (N-terminal biotin on a linker: ado-ado).
Parameters: key: below the threshold = too weak to quantify, mostly under pKd 3.1 to 4

Binder	pKd
ASGLDKRDYV [CLDN9, O95484]	3.69
TGLWKSETTV [ADGRA2, Q96PE1]	3.85

These binders were tested against T4, APBA1_2, Q02410 (assay: holdup assay). Conditions: plain residues with an end cap or a label only (N-terminal biotin on a linker: ado-ado).
Parameters: key: below the threshold = too weak to quantify, mostly under pKd 3.1 to 4

Binder	pKd
ASGLDKRDYV [CLDN9, O95484]	4.35
TGLWKSETTV [ADGRA2, Q96PE1]	3.57

What follows are binders tested against MAGI3_2, Q5TCQ9 (assay: holdup assay). Conditions: plain residues with an end cap or a label only (N-terminal biotin on a linker: ado-ado).
MAGI3_2, Q5TCQ9, sequence (Q5TCQ9 398-503): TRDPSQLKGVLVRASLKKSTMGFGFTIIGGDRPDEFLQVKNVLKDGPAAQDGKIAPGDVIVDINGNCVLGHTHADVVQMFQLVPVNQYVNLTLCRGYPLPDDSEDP
Parameters: key: below the threshold = too weak to quantify, mostly under pKd 3.1 to 4

Binder	pKd
ASGLDKRDYV [CLDN9, O95484]	below the threshold
TGLWKSETTV [ADGRA2, Q96PE1]	5.6

These binders were tested against T5, NHERF3_3, Q5T2W1 (assay: holdup assay). Conditions: plain residues with an end cap or a label only (N-terminal biotin on a linker: ado-ado).
Parameters: key: below the threshold = too weak to quantify, mostly under pKd 3.1 to 4

Binder	pKd
ASGLDKRDYV [CLDN9, O95484]	below the threshold
TGLWKSETTV [ADGRA2, Q96PE1]	below the threshold

What follows are binders tested against T6, ARHGAP21, Q5T5U3 (assay: holdup assay). Conditions: plain residues with an end cap or a label only (N-terminal biotin on a linker: ado-ado).
Parameters: key: below the threshold = too weak to quantify, mostly under pKd 3.1 to 4

Binder	pKd
ASGLDKRDYV [CLDN9, O95484]	below the threshold
TGLWKSETTV [ADGRA2, Q96PE1]	4.03

These binders were tested against MAGI2_6, Q86UL8 (assay: holdup assay). Conditions: plain residues with an end cap or a label only (N-terminal biotin on a linker: ado-ado).
MAGI2_6, Q86UL8, sequence (Q86UL8 1141-1229): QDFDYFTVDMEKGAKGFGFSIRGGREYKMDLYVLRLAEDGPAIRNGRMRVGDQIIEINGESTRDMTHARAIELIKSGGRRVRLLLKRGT
Parameters: key: below the threshold = too weak to quantify, mostly under pKd 3.1 to 4

Binder	pKd
ASGLDKRDYV [CLDN9, O95484]	below the threshold
TGLWKSETTV [ADGRA2, Q96PE1]	3.85

These binders were tested against Inadl_2, Q8NI35 (assay: holdup assay). Conditions: plain residues with an end cap or a label only (N-terminal biotin on a linker: ado-ado).
Inadl_2, Q8NI35, sequence (Q8NI35 238-335): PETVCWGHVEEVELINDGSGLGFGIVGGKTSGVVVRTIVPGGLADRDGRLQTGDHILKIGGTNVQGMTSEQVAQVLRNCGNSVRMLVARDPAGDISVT
Parameters: key: below the threshold = too weak to quantify, mostly under pKd 3.1 to 4

Binder	pKd
ASGLDKRDYV [CLDN9, O95484]	below the threshold
TGLWKSETTV [ADGRA2, Q96PE1]	below the threshold

What follows are binders tested against ARHGEF12, Q9NZN5-2 (assay: holdup assay). Conditions: plain residues with an end cap or a label only (N-terminal biotin on a linker: ado-ado).
ARHGEF12, Q9NZN5-2, sequence (Q9NZN5 other isoform, or with tags, fused parts or gaps): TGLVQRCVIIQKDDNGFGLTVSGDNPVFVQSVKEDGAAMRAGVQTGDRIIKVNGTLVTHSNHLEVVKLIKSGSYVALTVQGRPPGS
Parameters: key: below the threshold = too weak to quantify, mostly under pKd 3.1 to 4

Binder	pKd
ASGLDKRDYV [CLDN9, O95484]	below the threshold
TGLWKSETTV [ADGRA2, Q96PE1]	4.06

What follows are binders tested against T7, PCLO, Q9Y6V0 (assay: holdup assay). Conditions: plain residues with an end cap or a label only (N-terminal biotin on a linker: ado-ado).
Parameters: key: below the threshold = too weak to quantify, mostly under pKd 3.1 to 4

Binder	pKd
ASGLDKRDYV [CLDN9, O95484]	below the threshold
TGLWKSETTV [ADGRA2, Q96PE1]	below the threshold

What follows are binders tested against T8, APBA2_2, Q99767 (assay: holdup assay). Conditions: plain residues with an end cap or a label only (N-terminal biotin on a linker: ado-ado).
Parameters: key: below the threshold = too weak to quantify, mostly under pKd 3.1 to 4

Binder	pKd
ASGLDKRDYV [CLDN9, O95484]	below the threshold
TGLWKSETTV [ADGRA2, Q96PE1]	below the threshold

What follows are binders tested against T9, MPP2, Q14168 (assay: holdup assay). Conditions: plain residues with an end cap or a label only (N-terminal biotin on a linker: ado-ado).
Parameters: key: below the threshold = too weak to quantify, mostly under pKd 3.1 to 4

Binder	pKd
ASGLDKRDYV [CLDN9, O95484]	below the threshold
TGLWKSETTV [ADGRA2, Q96PE1]	below the threshold

The binders below were run against GORASP2, Q9H8Y8 (assay: holdup assay). Conditions: plain residues with an end cap or a label only (N-terminal biotin on a linker: ado-ado).
Parameters: key: below the threshold = too weak to quantify, mostly under pKd 3.1 to 4

Binder	pKd
ASGLDKRDYV [CLDN9, O95484]	below the threshold
TGLWKSETTV [ADGRA2, Q96PE1]	3.9

Each binder was assayed against NHERF2_2, Q15599 (assay: holdup assay). Conditions: plain residues with an end cap or a label only (N-terminal biotin on a linker: ado-ado).
NHERF2_2, Q15599, sequence (Q15599 142-238): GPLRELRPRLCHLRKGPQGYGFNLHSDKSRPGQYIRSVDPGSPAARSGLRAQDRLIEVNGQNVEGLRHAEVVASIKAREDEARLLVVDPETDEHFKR
Parameters: key: below the threshold = too weak to quantify, mostly under pKd 3.1 to 4

Binder	pKd
ASGLDKRDYV [CLDN9, O95484]	below the threshold
TGLWKSETTV [ADGRA2, Q96PE1]	below the threshold
